Experiment in all cases: EMSA
On the technique in general: A gel shift assay detects complexes by their altered migration in electrophoresis.

The target in data set [1] is TEAD DBD, multimeric SEC fraction (F#50) (human, UniProt P28347 28-104).
Data set [2] has as its target T1, ΔL1 TEAD DBD (truncated L1 loop) (human, UniProt P28347 28-104, del52-63).
Data set [3] concerns the target TEAD DBD, monomeric SEC fraction (F#61) (human, UniProt P28347 28-104).
In data set [4] the target is T1, ΔL1 TEAD DBD (truncated L1 loop). This is another data set of the same source.
A further data set deals with TEAD DBD (before SEC) (human, UniProt P28347 28-104).

Changes are numbered by the printed parent chain. Like-named read-outs stand apart in the source and are kept apart here.

B1: 1xGT (dsDNA)
DNA 1: TTCGATACACTTGTGGAATGTGTTTGATTTGTTAGCCCCG
DNA 2: CGGGGCTAACAAATCAAACACATTCCACAAGTGTATCGAA
In general, Kd refers to the constant that tells how readily two partners part at equilibrium. A lower Kd goes with higher affinity. For B1, the binding result in data set [1] and in data set [3] was “binds” each time. In data set [2], this molecule showed an equilibrium dissociation constant (Kd) of 7.9 ± 1.4 nM.

B2: 2xGT (dsDNA)
DNA 1: B1 DNA 1 with T24G, T25G, G26A, T29G
DNA 2: B1 DNA 2 with A12C, C15T, A16C, A17C
B2: the binding result (in data set [1]; with TEAD DBD (before SEC); in data set [3]) was “binds” in each case. Besides, the equilibrium dissociation constant (Kd) in data set [4] came out at 8.7 nM.
